Data as given in PMC2132594.

Molecular target: human erythrocyte spectrin (heterodimer of α and β chains) (human) (UniProt P02549)
Experiment: single-particle fluorescence imaging
Settings: remark: other sources report otherwise

human erythrocyte spectrin (heterodimer of α and β chains), P02549 1-2419; P11277 1-2137
percent of spots in the second peak (tetramers): 40%
percent of the total spectrin in the second peak (tetramers): 59%
